The supplement of paper PMC9170038

Tested on: MS2 coat protein
Test: apparent KD of MS2 coat protein; higher = weaker reporter binding
Conditions: Eterna round: R107
Summary of the method: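 In 100 mM Tris-HCl pH 7.5 with 80 mM KCl and 4 mM MgCl2, and without or with constant ligand, SNAP-549-labelled MS2 coat protein was titrated in twofold steps from 0.7 or 1.5 nM to 3 µM. Per-step times went from 0.8–1.5 h down to 10–20 min. The RNA switches were transcribed on-chip from Illumina sequencing clusters, and apparent KD is the per-design median of normalised cluster binding-curve fits.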

[1] = input ligand: theophylline 20 uM
[2] = input ligand: theophylline 2 mM
[3] = input ligand: tryptophan 2.4 mM

Row | Sequence | apparent KD of MS2 coat protein (input ligand: arginine 13.2 mM) [nM] | apparent KD of MS2 coat protein (input ligand: none) [nM] | apparent KD of MS2 coat protein [1] [nM] | apparent KD of MS2 coat protein [2] [nM] | apparent KD of MS2 coat protein [3] [nM]
1 | UUGGGUUUGUGAAGGAGCGGGAAAGAUAUAUAUUUAAUCCUAACAUGAGGAUCACCCAUGUCCCAGGUAGGUCGCGCGGGUUUGG [12.O] | 33.9 | 47.1 | 46.4 | 64.3 | 46.9
2 | ACCUGUACGAAAAGUGCAGGACACGGAAUACGAGGACCGGUACGGCCGCCACUCGGAACCUGAGGAUCACCCUGGUAAAACCGUG [TrypAS 13 #AlternativeMS2 #Zipper #StaticStem] | 19.9 | 17.8 | 22.6 | 24 | 19.5
3 | UCACAUGAGGAUCACCCAUGUACAGGCGAUACCAGCCGUACAUUGGGCCCUUGGCAGCGCACCGAGGACUUUUUAAGCAUCUCGG [Diatbeen] | 26.2 | 19.8 | 401 | 282 | 23.8
4 | CUGACGUAGGAAGAUAUCUGGAACAAGGAUACCAGUAAACCAACAUACCCUUGGCAGCCUAAAACAUGAGGAUCACCCAUGUAAU [theeternabot_exclusion_MS2_Theo_A_26] | 11.9 | – | 14.2 | – | 13.7
5 | GAUGAACUAUUUGAUACCAGACUACAUGAGGAUCACCCAUGUGCGCGUCGUCCUCUGCCAGUCCCUUGGCAGCAAAUAGUUUAUC [XTheo B #9] | 69.8 | – | 140 | – | 85.2
6 | UUUUUUAUUGGGUAUAGAAUAUUAACUGAAGGAGCGUGGUAUUACACAGGUAGGUCGCAGUUUUUACAUGAGGAUCACCCAUGUU [JR_SSArginiA_Sub010] | 36.1 | 38.5 | 51.5 | 60.1 | 39
7 | GGGAGGUAGGCGGCCGCCACUGAUUUUCAUAUAUAUAUAACAUGAGGAUCACCCAUGUAGAUAUACAGGACCGGGCCUAUUUUUU [aaaF] | 30.2 | 18.8 | 21.9 | 18.2 | 14.2
8 | UCUUUCUUUGUAGAUACCAGCGUGUUAUCUUUCUUUUGACAUGAGGAUCACCCAUGUAUAUGCCCUUGGCAGCUACAUAUUCUUU [#01 Same State - Theophylline B] | 18.1 | – | 23.6 | – | 18.2
9 | UAUCGUCAGACGGCCGCCACUAGAACAUGAGGAUCACCCAUGUAAGUGGCCGGUCUCCUCAUGACUAGGACCGGGUCUGACGAAU [(Trp1)-(Ms2)-(T)'-(M)'-(Trp2)_Design18] | 9.69 | – | 14.1 | 10.9 | –
10 | AGCAGCUGGUUUCUUUUCUUUACAGCUGCACGAGGACCGGUACGGCCGCCACUCGAGGACAUGAGGAUCACCCAUGUGCCGGUCG | 34.1 | 25.6 | 40.6 | 49.7 | 22.7
11 | ACAUGAGGAUCACCCAUGUACUGGAUCUAACGAGGACCGGUACGGCCGCCACUCGAAGAUAGGACUAUGGAAACAUAGCUUAUCA [Design 1] | 15.3 | 15.3 | 19.9 | 18.4 | 14.6
12 | CUAUAUAUAUCGGCCGCCACUUACUCAUGAGGUAACAACAUGAGGAUCACCCAUGUUUGAGGAUCAAGGACCGGGAUAUAUAUAG [AstrosSSTryB#15] | 31.8 | – | 33.4 | 32.6 | –
13 | UUAUAAGUACCGGUCCUCAGAUCCUCAUGACGAGGACCGGUACGGCCGCCACUCGAAACAUGAGGAUCACCCAUGUAAUAAUAAU [Brourdmod05] | 18.8 | – | 29.3 | 27.7 | –
14 | CUAUAUUAUAGAAGGAGCGUCGAAAAUGGGUAAACAUGAGGAUCACCCAUGUAAAGGGAACGACAGGUAGGUCGCUAUAAUAUAG [AstromonsSSArgB#13] | 117 | 220 | 201 | 252 | 195
15 | AAUGCCGGAUCGGCCGCCACUGGUUGGCUCUGUGUACAUGAGGAUCACCCAUGUCCAUCCCAAACCAGGACCGGGAUCUUUGUGU [Veonmale] | 14.6 | – | 17.4 | 13.5 | –
16 | AGCGCAGGUCCUGAUACCAGAGACAUGAGGAUCACCCAUGUCCGAUGGUCCUGCCUCAGGCUCCCUUGGCAGCAGGGCUUGUGCU [Exclusion Theophylline B GF10] | 10.6 | – | 13.1 | – | 10.1
17 | UAGACGGCCGGAAGGAGCGGUACAUGAGGAUCACCCAUGUACUUCUGGGCAUCCGUAGUGUGCCAGGUAGGUCGCCGGUUGCGGG [XArg-B20] | 45.9 | 14.4 | 32.4 | 33.1 | 19.9
18 | UGGACGCAACGAGCACGAGGUCGGCAGCUACGAGGACCGGUACGGCCGCCACUCGAGUUACGACAUGAGGAUCACCCAUGUAAGG [theeternabot_exclusion_MS2_Trp_A_45] | 27.9 | – | 61.1 | 51.8 | –
19 | AAUAAACAUGAGGAUCACCCAUGUAGGGUGCGAGGACCGGUACGGCCGCCACUCGGGUGAAAACAUGAGGAUCACCCAUGUUAAA [Cloverleaf #DoubleMS2 #GUTurnoff] | 75.5 | – | 176 | 229 | –
20 | AUGUAGAACCGAAGGAGCGCGAUAACAUGAGGAUCACCCAUGUAGUUUUGGUGGCUUCGAUCGCAGGUAGGUCGCGGAAGUAGUA [#03 Exclusion - Arginine B] | 37.9 | 35.9 | 97.6 | 77 | 55.4

Row | Sequence | apparent KD of MS2 coat protein (input ligand: arginine 13.2 mM) [nM] | apparent KD of MS2 coat protein (input ligand: none) [nM] | apparent KD of MS2 coat protein [1] [nM] | apparent KD of MS2 coat protein [2] [nM] | apparent KD of MS2 coat protein [3] [nM]
21 | AACGUAUACAGAAGGAGCGUGAUUUGUGUUACUCAUUCAUAUACAUGAGGAUCACCCAUGUCACAGGUAGGUCGCUGUAUUCGUA [JR_ExcArginiB_Sub022] | 39.8 | 166 | 128 | 87.1 | 53.8
22 | CGAAUAUAGACGGCCGCCACUCUACAAACAUGAGGAUCACCCAUGUUCACAUAGUGGAAACACAUGAGGACCGGGUCAUAGGCAU [#18 Same State - Tryptophan B] | 19.2 | – | 25.4 | 21.3 | –
23 | GGGCUCGGAGUGCGGCGUGUUCCGCUCCGUCGAGGACCGGUACGGCCGCCACUCGACAUGAGGAUCACCCAUGUCCGAGCGCGCG [#1 Exclusion - Tryptophan A Attempt #6 (HarryS)] | 19.2 | 21.2 | 41.7 | 51.4 | 9.64
24 | UGUAUGUGAUCUGAUACCAGUCCAACUGGUAAACCAUGAGGAUCACCCAUGGAAAAUUGGGACCCUUGGCAGCAGAUCGCAUACU | 96.5 | – | 236 | 20.9 | 322
25 | UCACAUGAGGAUCACCCAUGUCCAGGUGAAGGAGCGAUUAGGGAGUCAGGUAGGUCGCACCACAUGAGGAUCACCCAUGUGCCUG [EAA NP+V+V2 #8 DOUBLE] | 18.4 | 22.8 | 27.5 | 25.4 | 24.1
26 | ACAUGAGGAUCACCCAUGUUUGAUGUUCCUCGAGGACCGGUACGGCCGCCACUCGAACGAGUGGCGCGCGAGCGCGCGCUCGCGC [aRa] | 11.4 | – | 20.3 | 14.8 | –
27 | ACAUGAGGAUCACCCAUGUCAGGGCACGAUACCAGCUGAUCCGGUGGCCCUUGGCAGCGUGACGAGUGGUCAUGAGGAUCACACG [?fmullin] | 75.8 | 128 | 176 | 158 | 130
28 | AAGUAAACAUGAGCAAAGCUCAUGUGCGAAGGAGCGGCGGAAACGCCAGGUAGGUCGCGCACAUGAGCAUCAGCCAUGUGUAUCA [Omei Arginine B SS A v2] | 45.3 | 31 | 33.5 | 22.1 | 9
29 | AGACAUGAGGAUCACCCAUGUAGUACGGAUACCAGAUCCAGAUGCGUCCCUUGGCAGCUGUAGUACAGCGUUACAUCGCUCGUAG [Exclusion - Theophylline A (Freestyle 24)] | 16.9 | – | 24.8 | – | 22.4
30 | AACGUAUACAGAAGGAGCGUGAUUUAUUAUUCUUUAAGAUAUACAUGAGGAUCACCCAUGUCACAGGUAGGUCGCUGUAUUCGUA [JR_ExcArginiB_Sub025] | 31 | 34.3 | 42.3 | 36.7 | 34.6
31 | UUGUUGUUUGGAAGGAGCGUGUAUGAGUUAGAACAUGAGGAUCACCCAUGUUGGAUGAUAGCACAGGUAGGUCGCCGGGUGGUGG [11.Y] | 8.43 | 24.1 | 18.4 | 66.8 | 11
32 | GCACGGUAGUCGGCCGCCACUGAAACAUGUGUCUACAUGAGGAUCACCCAUGUGGGUGUGUUUUGUAGGACCGGGACAAGACCCG [#11 Same State - Tryptophan B] | 16.8 | 19 | 28.1 | 18 | 17.2
33 | AAUGUAUGGCACAUGAGGAUCACCCAUGUGCGAGGACCGGUACGGCCGCCACUCGGUCCUGGGUUCUUAUUACUAUACAUUAAUG [XTryp A #15] | 9.78 | 11 | 16 | 14.4 | 27.1
34 | CACAUGAGGAUCACCCAUGUGUAAUAUGAAGGAGCGUCGGAAAUGACAGGUAGGUCGCAUGAAAUGCAAGUGUGUGAGGUUGUGA [EAA NP+V+V2 #12] | 9.17 | 10 | 17.7 | 10.5 | 10.9
35 | UGUAUGGACUGAAGGAGCGGGAAAAUAACUUGAGGAUCACCCAGGUAAAAGGCGAAAGCCACCCAGGUAGGUCGCAGUCCAUACU | 21.5 | 26.2 | 30.1 | 22.4 | 25.9
36 | UGUAUGGACUGAAGGAGCGGAAAAUAAAUCUGAGGAUCACCCAGGUAAUAGGCGAAAGCCAUCCAGGUAGGUCGCAGUCCAUACU | 56.9 | 86.7 | 101 | 133 | 105
37 | UUAUAUACUACGGCCGCCACUGAACAUGAGGAUCACCCAUGUAAUGUUCAGACGUCUUUAGACGACAGGACCGGGUAGAAUUAAA [Tryptophan B 1] | 79.5 | – | 114 | 122 | –
38 | ACAUGAGGAUCACCCAUGUCAGGGCACGAUACCAGCUGAUCCGGUGGCCCUUGGCAGCGUGACGUUUGGUCCCGCGGAUCACACG [xxmullin] | 92.4 | 326 | 262 | 334 | 404
39 | CCUCCUUGUACGGCCGCCACUGCAUCUCUGGAUACUCCGAUAAUACAUGAGGAUCACCCAUGUUACAGGACCGGGUAUAUAUUAC [theeternabot_sameState_MS2_Trp_B_19] | 14.7 | – | 18.7 | 15.3 | –
